Tests used:
[1] = tested on: T47D-MUC1* breast cancer cells; assay: xCELLigence real-time killing assay (impedance); type: cell-based, human; conditions: for ADC concentration at which essentially all (near total) tumor cells were killed: readout 120 hours post ADC addition
Method: In this assay, impedance is measured in real-time. When the adherent cancer cells are killed and come off of the electrode surface, impedance (insulation) decreases. […] Either MNC2-MMAE, DAR 4.1, MN20A10-MMAE, DAR 5.8, MNC2-MMAF, DAR 3.7, MN20A10-MMAF, DAR 3.8, MNC2-Deruxtecan, DAR 7.2, or MN20A10-Deruxtecan, DAR 4.6, was then added to the cancer cells. […] Taxol and Triton are added as the positive killing control. […] Taxol and Triton are added as the positive killing control.
In this assay, impedance is measured in real-time. When the adherent cancer cells are killed and come off of the electrode surface, impedance (insulation) decreases. […] Either MNC2-Exatecan, DAR 8.2, MNC2-Deruxtecan, DAR 4.0, MNC2-MMAE, DAR 4.1, or free Exatecan at 50 μM, was then added to the cancer cells.
(§1) To assess real-time killing of target cancer cells including breast cancer cells (T47D), non-small cell lung cancer cells (NCI-H1975) and pancreatic cancer cells (HP AF II) assays were performed on an xCELLigence RTCA MP Instrument (Agilent). Target Cancer cells were seeded onto a multi-electrode well plate at a density of 5000 cells/well (100 μL of a 50,000 cells/mL stock) and incubated for 24 hr in a 37° C./5% CO2 incubator. mAb MNC2 ADCs or mAb MN20A10-ADCs were prepared as a 2× solution in corresponding growth media and 100 μL of each concentration was added to target cells. As a positive control (100% cell killing) cells were treated with either 1% triton or 1 μM Taxol instead of ADC. After 40-120 hours incubation in a 37° C./5% CO2 incubator cell killing was assessed. In this assay, impedance is measured in real-time. When the adherent cancer cells are killed and come off the electrode surface, impedance (insulation) decreases.
(§2) MNC2-ADCs and MN20A10-ADCs were also assayed for their ability to kill both low and high MUC1* expressing cells by monitoring killing in real-time using an xCELLigence instrument. In the xCelligence system, target cancer cells, which are adherent, are plated onto electrode array 96-well plates. Adherent cells insulate the electrode and increase the impedance. The number of adherent cancer cells is directly proportional to impedance. […] Therefore, increasing impedance reflects the growth of the cancer cells and decreasing impedance reflects the killing of the cancer cells.

[2] = tested on: NCI-H1975 lung cancer cells; assay: xCELLigence real-time killing assay (impedance); type: cell-based, human; conditions: for time course of effect: 40 hours versus 120 hours; for ADC concentration at which essentially all the lung tumor cells were killed: readout 40 hours; for ADC concentration at which essentially all the tumor cells were killed: readout 120 hours post ADC addition
Method: FIG. 51A-51I show traces from the real-time killing assays performed on an xCELLigence instrument. In this assay, impedance is measured in real-time. When the adherent cancer cells are killed and come off of the electrode surface, impedance (insulation) decreases. NCI-H1975 lung cancer cells were plated onto multi-electrode-well plates at 5,000 cells per well and allowed to adhere and grow for 24 hours before the addition of ADCs. Either MNC2-MMAE, DAR 4.1, MN20A10-MMAE, DAR 5.8, MNC2-MMAF, DAR 3.7, MN20A10-MMAF, DAR 3.8, MNC2-Deruxtecan, DAR 7.2, or MN20A10-Deruxtecan, DAR 4.6, was then added to the cancer cells. […] Taxol and Triton are added as the positive killing control. […].
FIGS. 56A-56D show traces from the real-time killing assays performed on an xCELLigence instrument. In this assay, impedance is measured in real-time. When the adherent cancer cells are killed and come off of the electrode surface, impedance (insulation) decreases. Here NCI-H1975 non-small cell lung cancer cells that express very low levels of MUC1*, were plated onto multi-electrode 96-well plates at 5,000 cells per well and allowed to adhere and grow for 24 hours before the addition of ADCs. Either MNC2-Exatecan, DAR 8.2, MNC2-Deruxtecan, DAR 4.0, MNC2-MMAE, DAR 4.1, or free Exatecan at 50 μM, was then added to the cancer cells.
as §1, §2

B1: MN20A10-MMAF (conjugate)
VH: QVQLVESGGGLVKPGGSLRLSCAASGFTFSTYAMSWIRQAPGKGLEWVASIGRAGSTYYSDSVKGRFTISRDNAKNSLYLQMNSLRAEDTAVYYCARGPIYNDYDEFAYWGQGTLVTVSS
VL: EIVLTQSPATLSLSPGERATLSCKSSQSVLYSSNQKNYLAWYQQKPGQAPRLLIYWASTRESGIPARFSGSGSGTDFTLTISSLEPEDFAVYYCHQYLSSLTFGGGTKVEIKR
ADC concentration at which essentially all the tumor cells are killed ([1]; readout 40 hours post ADC addition): 56 nM | ADC concentration at which essentially all (near total) tumor cells were killed [1]: 19 nM | time course of effect [2]: stasis at 40 hours, but killing at 120 hours | ADC concentration at which essentially all the lung tumor cells were killed [2]: 167 nM | ADC concentration at which essentially all the tumor cells were killed [2]: 56 nM

B2: MNC2-MMAF (conjugate)
VH: EVQLVESGGGLVKPGGSLRLSCAASGFTFSGYAMSWVRQAPGKGLEWVSTISSGGTYIYYPDSVKGRFTISRDNAKNSLYLQMNSLRAEDTAVYYCARLGGDNYYEYFDVWGKGTTVTVSS
VL: DIVLTQSPASLAVSPGQRATITCRASKSVSTSGYSYMHWYQQKPGQPPKLLIYLASNLESGVPARFSGSGSGTDFTLTINPVEANDTANYYCQHSRELPFTFGGGTKVEIKRT
time course of effect [2]: stasis at 40 hours, but killing at 120 hours | ADC concentration at which essentially all the lung tumor cells were killed [2]: 167 nM | ADC concentration at which essentially all the tumor cells were killed [2]: 56 nM

B3: MNC2-Deruxtecan (conjugate)
VH: B2 VH
VL: B2 VL
concentration as low as which cancer cells are potently killed ([1]; readout 0 to 120 hours, MNC2-Exatecan DAR 8.2, MNC2-Deruxtecan DAR 4.0 (FIG. 55)): as low as 6.2 nM and even as low as 2.1 nM | ADC concentration at which essentially all (near total) tumor cells were killed [1]: 6 nM | time course of effect [2]: stasis at 40 hours, but killing at 120 hours
